Test results as given in US20190153113A1, “CD39 VASCULAR ISOFORM TARGETING AGENTS” (INNATE PHARMA, priority 2015, published 2019).
Values belong to the molecule of their own block, whether it stands above or below them.

How the values were obtained:
[1] = molecular target: T1, CD39 (Homo sapiens, UniProt P49961); assay: Inhibition of CD39 enzymatic activity in Ramos cells, AMP production by Maldi TOF mass spectrometry; format: cell-based; conditions: Ramos cells, ARL at 100 nM, Example 7
T1 construct: cells that endogenously express CD39 at their surface, e.g. regulatory T (TReg) cells, B cells, cancer cells, lymphoma cells (e.g. Ramos cells); endogenous in cells; host or cells: Ramos human lymphoma cells
T1 sequence (P49961 1-510): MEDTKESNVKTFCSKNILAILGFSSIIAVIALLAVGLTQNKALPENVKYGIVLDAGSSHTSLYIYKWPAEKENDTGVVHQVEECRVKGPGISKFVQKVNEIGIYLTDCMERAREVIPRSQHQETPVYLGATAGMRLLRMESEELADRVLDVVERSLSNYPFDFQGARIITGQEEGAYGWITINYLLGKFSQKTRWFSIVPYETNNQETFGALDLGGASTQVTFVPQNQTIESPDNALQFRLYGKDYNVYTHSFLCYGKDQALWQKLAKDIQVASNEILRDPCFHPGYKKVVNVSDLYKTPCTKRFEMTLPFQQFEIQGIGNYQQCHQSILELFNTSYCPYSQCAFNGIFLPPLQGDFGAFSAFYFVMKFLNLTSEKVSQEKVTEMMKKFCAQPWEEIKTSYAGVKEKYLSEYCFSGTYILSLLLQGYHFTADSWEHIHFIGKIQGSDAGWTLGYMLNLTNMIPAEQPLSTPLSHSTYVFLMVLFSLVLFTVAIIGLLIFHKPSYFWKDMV
Description: The inhibition of CD39 enzymatic activity by antibodies was evaluated by Maldi TOF mass spectrometry (production of AMP). This assay represents an assay that is relatively insensitive to down-modulation of CD39 expression. […] After washes, cells were incubated with anti-CD39 antibodies, isotype control, or ARL and 50 μM ATP for 30 minutes at 4° C. in PBS. AMP generated is quantified in supernatants by Maldi TOP.
The inhibition of CD39 enzymatic activity by antibodies was evaluated by Maldi TOF mass spectrometry (production of AMP). Briefly, 10^5 Ramos human lymphoma cells were incubated overnight at 37° C. with anti-CD39 antibodies or a chemical CD39 inhibitor (ARL 100 μM). After washes, cells were incubated with anti-CD39 antibodies, isotype control, or ARL and 50 μM ATP for 30 minutes at 4° C. in PBS. AMP generated is quantified in supernatants by Maldi TOP. Antibodies were used at 33 nM and ARL at […].

[2] = molecular target: T2, Recombinant human CD39 protein (vascular isoform), soluble (human, UniProt P49961 38-478); assay: ELISA on coated recombinant human CD39 (RechuCD39), HRP secondary antibody, TMB, OD 450 nm [bottom panel Mouse IgG2a I-391]
T2 construct: they are written under this molecule; also called Rec-huCD39; huCD39 protein; not shown: M2 tag added in the C-terminal part
T2 sequence: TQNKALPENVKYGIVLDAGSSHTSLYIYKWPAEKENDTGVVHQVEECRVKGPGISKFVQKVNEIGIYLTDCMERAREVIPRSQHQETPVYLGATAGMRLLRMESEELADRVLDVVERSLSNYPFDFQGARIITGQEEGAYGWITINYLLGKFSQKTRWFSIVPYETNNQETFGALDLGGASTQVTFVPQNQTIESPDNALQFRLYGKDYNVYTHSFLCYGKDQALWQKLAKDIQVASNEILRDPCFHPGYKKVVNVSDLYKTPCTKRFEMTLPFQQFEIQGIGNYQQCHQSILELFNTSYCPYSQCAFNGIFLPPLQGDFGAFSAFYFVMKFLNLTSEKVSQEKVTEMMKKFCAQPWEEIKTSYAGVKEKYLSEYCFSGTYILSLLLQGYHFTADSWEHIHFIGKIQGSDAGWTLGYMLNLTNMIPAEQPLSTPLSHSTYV
Description: (§1) Wells were washed in TBS Tween 20, and further saturated 2H at RT in TBS Blocking buffer. Dose range concentration of primary antibody was incubated in TBS blocking buffer for 2h at RT. Wells were washed in TBS Tween 20. […] Optical density was measured on Enspire at OD=450.

[3] = molecular target: T3, Recombinant human CD39-L4 (NTPDase5, ENTPD5) (human, UniProt O75356 25-428); assay: ELISA on coated RechuCD39-L4, OD 450 nm [bottom panel Mouse IgG2a I-391]
T3 construct: Coated in ELISA
T3 sequence: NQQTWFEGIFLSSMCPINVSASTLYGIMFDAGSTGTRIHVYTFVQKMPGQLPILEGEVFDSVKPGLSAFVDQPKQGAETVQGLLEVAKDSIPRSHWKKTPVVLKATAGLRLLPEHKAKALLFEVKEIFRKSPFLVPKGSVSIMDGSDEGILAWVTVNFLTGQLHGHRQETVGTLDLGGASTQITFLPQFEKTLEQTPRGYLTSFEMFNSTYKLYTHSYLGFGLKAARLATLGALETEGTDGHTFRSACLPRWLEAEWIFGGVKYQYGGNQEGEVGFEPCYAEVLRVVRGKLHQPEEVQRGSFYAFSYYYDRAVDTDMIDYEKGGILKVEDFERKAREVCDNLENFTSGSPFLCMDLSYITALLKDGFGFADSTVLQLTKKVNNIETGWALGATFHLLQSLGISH
Description: as §1

[4] = molecular target: T4, Recombinant human CD39-L2 (NTPDase6, ENTPD6) (human, UniProt O75354 61-484, limits assumed); assay: ELISA on coated RechuCD39-L2, OD 450 nm [bottom panel Mouse IgG2a I-391]
T4 construct: Coated in ELISA
T4 sequence: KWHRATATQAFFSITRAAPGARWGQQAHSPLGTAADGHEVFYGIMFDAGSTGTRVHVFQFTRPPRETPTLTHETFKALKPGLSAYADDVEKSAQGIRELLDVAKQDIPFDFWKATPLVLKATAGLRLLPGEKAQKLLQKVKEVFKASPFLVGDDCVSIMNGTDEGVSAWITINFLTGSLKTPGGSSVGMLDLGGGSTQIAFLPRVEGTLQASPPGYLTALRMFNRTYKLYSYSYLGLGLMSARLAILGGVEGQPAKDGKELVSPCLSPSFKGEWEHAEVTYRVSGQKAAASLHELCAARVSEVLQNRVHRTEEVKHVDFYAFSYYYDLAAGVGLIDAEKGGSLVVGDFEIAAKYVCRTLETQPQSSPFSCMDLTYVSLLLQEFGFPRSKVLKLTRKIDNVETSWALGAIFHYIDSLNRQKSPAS
Description: as §1

[5] = molecular target: T5, Recombinant human CD39-L3 (NTPDase3, ENTPD3) (human, UniProt O75355 44-485, limits assumed); assay: ELISA on coated RechuCD39-L3, OD 450 nm [bottom panel Mouse IgG2a I-391]
T5 construct: Coated in ELISA
T5 sequence: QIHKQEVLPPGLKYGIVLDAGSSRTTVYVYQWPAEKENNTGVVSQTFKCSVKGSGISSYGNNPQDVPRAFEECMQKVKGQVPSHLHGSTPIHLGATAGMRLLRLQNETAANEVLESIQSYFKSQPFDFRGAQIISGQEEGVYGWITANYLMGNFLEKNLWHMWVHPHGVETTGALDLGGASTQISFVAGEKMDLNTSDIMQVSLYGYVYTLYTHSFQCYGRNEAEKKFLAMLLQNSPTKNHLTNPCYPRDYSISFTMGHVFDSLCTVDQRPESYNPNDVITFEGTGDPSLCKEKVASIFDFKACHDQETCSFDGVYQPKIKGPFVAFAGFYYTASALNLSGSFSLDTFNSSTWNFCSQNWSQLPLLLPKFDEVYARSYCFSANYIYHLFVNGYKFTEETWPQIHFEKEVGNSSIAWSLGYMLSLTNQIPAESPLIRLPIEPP
Description: as §1

[6] = molecular target: T6, Human CD39 (vascular CD39, NTPDase1, ENTPD1) expressed at the cell surface (human, UniProt P49961 1-510); assay: flow cytometry on Ramos cells, antibody at 10 µg/ml, GAM-PE
T6 construct: also called huCD39; HEK-huCD39
T6 sequence: T1 sequence (P49961 1-510)

[7] = molecular target: T3, Recombinant human CD39-L4 (NTPDase5, …); assay: ELISA, recombinant isoform coated at 500 ng/ml or 1 µg/ml
Description: as §1

[8] = molecular target: T5, Recombinant human CD39-L3 (NTPDase3, …); assay: as above
Description: as §1

[9] = molecular target: T4, Recombinant human CD39-L2 (NTPDase6, …); assay: as above
Description: as §1

Molecule: CCN(CC)c1ncnc2c1ncn2[C@@H]1O[C@H](COP(=O)(O)OP(=O)(O)C(Br)(Br)P(=O)(O)O)[C@@H](O)[C@H]1O [ARL, reference compound]
inhibition of AMP generated [1]: strong inhibition of AMP generated, but resulted in significantly less CD39 blockade than I-391

EC50 (read off the curve) [2]: ~0.08 µg/mL
binding result [3]: no binding (tested: 50 ug/ml)
binding result [4]: no binding (tested: 50 ug/ml)
binding result [5]: no binding (tested: 50 ug/ml)
B1: Antibody I-391 with Fc domain of mouse IgG2a isotype (MOGA) (antibody, V domains shown)
VH: QIQLVQSGPELKKPGETVKISCKASGYTFRNYGMNWVKQAPGKGLKWMGWINTYTGEPTYADDFKGRFAFSLATSASTAYLQISNLKNEDTATYFCARKAYYGSNYYFDYWGQGTTLTVSS
VL: DIVMTQSHKFMSTSVGDRVSITCKASQDVSTAVAWYQQKPGQSPKLLIYSASYRYTGVPDRFTGSGSGTDFTFTISTVQAEDLAVYYCQQHYTTPPYTFGGGTKLEIK

binding result [6]: binds
binding result [7]: no binding
binding result [8]: no binding
binding result [9]: no binding
B2: Antibody I-392, recombinant chimeric human IgG1 with heavy chain N297Q mutation (antibody, V domains shown)
VH: QIQLVQSGPEVKKPRETVKISCKASGYTFTHYGMNWVKQAPGKGLKWMGWINTYTGEPTYADDFKGRFAFSLEASASTAYLQINNLKNEDTATYFCARRRYEGNYVFYYFDYWGQGTTLTVSS
VL: DIQMTQSPASLSASVGETVTITCRASENIYSYFSWYQQKQGKSPQLLVYTAKTLAEGVPSRFSGSGSGTQFSLKINSLQPEDFGSYYCQHHYVTPYTFGGGTKLEIK
